Source: the supplement of paper PMC10126150
± gives the standard deviation of the averaged measurements.

The sequences below were run on ATP (assay: switch fluorescence ratio, 500 uM ATP over buffer (Cy3 cluster intensity, sum of 5 cycles each) (fold (ratio)); higher = stronger signal-on switching upon ATP binding; sequences stand for … in TCGTCGGCAGCGTCAGATGTGTATAAGAGACAGTTTTTTTTTTTTTTTTTTTTTTTTT…TC). Conditions: aptamer strand: ATP DNA aptamer (quencher-CACCTGGGGGAGTATTGCGGAGGAAGG + anchor), 100 nM annealed; ATP concentration: 500 uM.
Procedure, shortened: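 Per cluster, summed Cy3 intensity from the target cycles was divided by that from the buffer cycles to give the fluorescence ratio, then averaged per switch-domain sequence. Clusters outside 100-1000 RFU were excluded. The Cy3-labelled switching-strand clusters, on a modified Illumina MiSeq flow-cell, were annealed to 100 nM quencher-labelled ATP aptamer and imaged in selection buffer, then after 15 min with 500 uM ATP at 22 °C, for five cycles with NaOH stripping and re-annealing between them.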
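Note: ATP exposure 15 min at 22 °C before imaging.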

Sequence	switch fluorescence ratio
TGGGTGCCGA	0.989 ± 0.011
TGGGTGCGCA	1.03 ± 0.025
TGGGTGGCTC	1.011 ± 0.0015
TGGGTGGTGG	0.983 ± 0.016
TGGGTGTCCA	1 ± 0.021
TGGGTGTGGA	1.01 ± 0.051
TGGGTGTTTT	1.05 ± 0.12
TGGGTTAAAT	0.995 ± 0.023
TGGGTTACAT	1.01 ± 0.031
TGGGTTAGAG	0.9878 ± 0.0052
TGGGTTAGGC	0.97 ± 0.013
TGGGTTATGA	0.9941 ± 0.0084
TGGGTTATTG	0.998 ± 0.019
TGGGTTCAGG	1 ± 0.015
TGGGTTCGTA	0.994 ± 0.031
TGGGTTGTTT	0.986 ± 0.031
TGGGTTTAAT	1.03 ± 0.018
TGGGTTTGTT	0.986 ± 0.03
TGGGTTTTAA	0.999 ± 0.025
TGGTAAAGGC	0.979 ± 0.042
TGGTAAATGG	1.01 ± 0.019
TGGTAATAGT	1.02 ± 0.038
TGGTAATGTG	1.01 ± 0.096
TGGTAATTAT	0.974 ± 0.023
TGGTACGGTT	0.975 ± 0.015
TGGTAGACGT	0.968 ± 0.016

Sequence	switch fluorescence ratio
TGGTAGGAGA	0.979 ± 0.013
TGGTAGGGGA	1.04 ± 0.03
TGGTAGGGGC	1.02 ± 0.057
TGGTAGTGGG	0.98 ± 0.026
TGGTATAATC	1.001 ± 0.0038
TGGTATAGTC	1.001 ± 0.0059
TGGTATCAGC	0.999 ± 0.048
TGGTATGCCC	1.04 ± 0.088
TGGTATGCGG	1.02 ± 0.013
TGGTATTTTG	0.977 ± 0.024
TGGTCAGCTT	0.994 ± 0.017
TGGTCAGGGT	0.9735 ± 0.0097
TGGTCCAGG	1.15 ± 0.14
TGGTCCTATG	1.01 ± 0.054
TGGTCGCATT	1.01 ± 0.034
TGGTCGGGGC	0.974 ± 0.025
TGGTCGTACG	0.937 ± 0.071
TGGTCGTATT	0.9577 ± 0.0063
TGGTCGTGTG	1 ± 0.027
TGGTCTTCGT	0.992 ± 0.057
TGGTGACCGT	1 ± 0.025
TGGTGAGGGA	0.99 ± 0.014
TGGTGAGGGC	0.9816 ± 0.0077
TGGTGCAATC	2.36 ± 0.86
TGGTGCAGCT	1.005 ± 0.0059
TGGTGCCCAC	1.01 ± 0.027

Sequence	switch fluorescence ratio
TGGTGCGGCG	1.09 ± 0.031
TGGTGCTGTT	0.985 ± 0.03
TGGTGGAGGG	1 ± 0.032
TGGTGGCACG	0.965 ± 0.011
TGGTGGCCCT	1.01 ± 0.06
TGGTGGGGTA	0.998 ± 0.022
TGGTGGGTCG	1.08 ± 0.069
TGGTGGTGGG	1.02 ± 0.018
TGGTGGTTCT	0.987 ± 0.029
TGGTGTATGG	1.01 ± 0.035
TGGTGTGGAA	0.9806 ± 0.0027
TGGTGTGGGT	0.989 ± 0.014
TGGTGTGTAC	1.06 ± 0.076
TGGTGTTTGC	1 ± 0.038
TGGTGTTTT	0.998 ± 0.024
TGGTTAACAG	0.999 ± 0.022
TGGTTAAGAT	0.999 ± 0.038
TGGTTATCTT	0.969 ± 0.011
TGGTTATGAA	0.998 ± 0.03
TGGTTATGGC	0.923 ± 0.082
TGGTTATGGT	0.992 ± 0.037
TGGTTCATCG	0.97771 ± 0.00071
TGGTTCGTCT	0.955 ± 0.058
TGGTTCTGTT	0.975 ± 0.018
TGGTTGAACG	0.996 ± 0.019
TGGTTGAGGC	1.01 ± 0.021

Sequence	switch fluorescence ratio
TGGTTGATAG	0.9916 ± 0.0065
TGGTTGCCTG	0.993 ± 0.056
TGGTTGCTTG	1.01 ± 0.034
TGGTTGGAAG	0.987 ± 0.016
TGGTTGGCTC	0.985 ± 0.042
TGGTTGGGTA	0.997 ± 0.018
TGGTTGTTAG	1.012 ± 0.0073
TGGTTTACTA	1.009 ± 0.0096
TGGTTTATAC	1.32 ± 0.43
TGGTTTATGG	1.01 ± 0.02
TGGTTTATTT	0.976 ± 0.01
TGGTTTCTTG	0.963 ± 0.042
TGGTTTGGCC	0.97 ± 0.018
TGGTTTGGTT	0.986 ± 0.04
TGGTTTGTGT	0.981 ± 0.018
TGGTTTTAAT	0.973 ± 0.028
TGGTTTTAGA	0.999 ± 0.016
TGGTTTTAGG	0.99 ± 0.029
TGGTTTTCGG	0.993 ± 0.041
TGGTTTTCTT	0.992 ± 0.03
TGGTTTTGGT	0.987 ± 0.025
TGGTTTTGT	1.03 ± 0.066
TGGTTTTTAG	1.05 ± 0.033
TGTAACTCAT	1 ± 0.011
TGTAAGACCA	1.01 ± 0.012
TGTAAGGAAC	1.26 ± 0.35

Sequence	switch fluorescence ratio
TGTAAGGATG	0.996 ± 0.013
TGTAAGGGTG	0.974 ± 0.065
TGTAATATGG	1.1 ± 0.14
TGTAATCCGC	1.28 ± 0.021
TGTAATGTGA	1.07 ± 0.14
TGTACGTTGG	1.26 ± 0.37
TGTACTTTGG	1.01 ± 0.022
TGTAGCGGGG	0.9942 ± 0.0048
TGTAGGAGGG	0.993 ± 0.01
TGTAGGAGTG	1.25 ± 0.36
TGTAGGGAGG	0.966 ± 0.053
TGTAGGGGGG	0.973 ± 0.034
TGTAGGGTAG	0.958 ± 0.017
TGTAGGGTGC	1.07 ± 0.044
TGTAGTCCGT	0.982 ± 0.0055
TGTAGTGAGT	0.959 ± 0.037
TGTAGTGTTT	1.03 ± 0.044
TGTATAAATT	0.9679 ± 0.0048
TGTATAATGT	0.985 ± 0.029
TGTATCATGT	0.99 ± 0.037
TGTATGAGCA	1.02 ± 0.011
TGTATGGGAA	0.9352 ± 0.0043
TGTATTAAAG	0.983 ± 0.029
TGTATTTAGA	1.02 ± 0.032
TGTATTTGGG	0.991 ± 0.013
TGTATTTTTT	1.05 ± 0.093

Sequence	switch fluorescence ratio
TGTCAATTGG	0.984 ± 0.021
TGTCAGAAAT	0.992 ± 0.02
TGTCCTAGAG	1.02 ± 0.024
TGTCCTCAGC	1.51 ± 0.14
TGTCCTTAAA	0.9898 ± 0.0039
TGTCGCGTAG	0.993 ± 0.034
TGTCGCTCGT	0.992 ± 0.043
TGTCGTCGGG	0.995 ± 0.026
TGTCGTTGGA	0.998 ± 0.043
TGTCGTTTTT	1.01 ± 0.039
TGTCTAGTTA	0.972 ± 0.0041
TGTCTCCCTT	1.007 ± 0.0074
TGTGAAAGTG	0.982 ± 0.041
TGTGAATCAG	1.018 ± 0.0075
TGTGACAGTT	1.09 ± 0.1
TGTGACGGAC	1.12 ± 0.015
TGTGACTCGG	0.978 ± 0.016
TGTGAGACTT	1.01 ± 0.052
TGTGAGGCGT	0.993 ± 0.0036
TGTGATTAGG	0.996 ± 0.03
TGTGCCAGGG	1.06 ± 0.024
TGTGCCTGTT	1.008 ± 0.0018
TGTGGAAAGA	0.992 ± 0.054
